Measurements reported in patent publication US11466067B2 (priority 2019, dated 2022).

Experiments:
[1] = Intracolonic spray in NHP: IL-1Ra, pSTAT3, construct, IL-10; format: in vivo, cynomolgus monkeys
From the text: This was achieved using a colonoscope with an associated spray nozzle. In this way, refined information for onset and duration of IL-1Ra induction could be obtained at specific local doses. […] The variability of pSTAT3/total STAT3 detected was consistent with tissue capture and stability challenges in this in vivo model. Measurement of tissue delivery construct levels had similar tissue capture and stability challenges, showing low and variable amounts in the tissue samples collected (FIG. 143). […] Since IL-10 can induce cells to produce more IL-10, we also looked for induced IL-10. […] It is important to note, due to the similarity of human and NHP IL-10, that ELISA values shown could also include hIL-10 that has somehow separated from the carrier domain of the delivery construct molecule. While this cannot be ruled out, no other data supports this as an outcome and it appears likely that the majority, if not all, tissue and serum IL-10 measured represents an NHP source.

[2] = Purification with and without sulfitolysis: SEC-HPLC forms, yield, dimer recovery
Protocol: Refolding in both processes was carried out at 4° C. The refolding solution used in both processes contained 1 mM reduced glutathione, 0.5 mM oxidized glutathione, 1M Arginine-HCl, 250 mM sucrose, 100 mM Tris pH 8.5 at 4° C., and 2 mM EDTA.

[3] = test system: colonic genes; test: Pan-colonic administration in NHP: colonic gene expression at 8 h; format: in vivo, cynomolgus monkeys
Protocol: (§1) Colonic biopsies at each tissue timepoint were analyzed for local concentration of IL-10 delivery construct, total IL-10, IL-1Ra, soluble cytokines, activation of STAT3 and gene expression following administration of the IL-10 delivery construct. […] In addition, STC1, MTNR1A and VNN2 encode proteins that suppress the […] signaling pathway, a pathway through which key pro-inflammatory cytokines are regulated. […] This is consistent with the ability of IL-10 to suppress these cells' activation or differentiation towards a pro-inflammatory immune phenotype.

[4] = test system: T lymphocytes and macrophages; test: Cellular target in Lamina propria (CD3, F4/80, pSTAT3) after oral gavage; format: in vivo, mouse
[5] = test system: colonic markers; test: Colonic sigmoidoscopy spray in NHP: inflammatory and tissue repair markers; format: in vivo, Macaca fascicularis; details: 1, 3, 10 mg
Protocol: To assess the effect of an IL-10 delivery construct on pro-inflammatory and anti-inflammatory markers the IL-10 delivery construct was delivered to male Macaca fascicularis monkeys (about 5 to about 8 kg) by colonic sigmoidoscopy with a spray nozzle. The IL-10 delivery construct was administered at doses of 1 mg, 3 mg, and 10 mg formulated in albumin.

[6] = test system: colonic tissue; test: Pan-colonic administration in NHP: colonic tissue IL-10, IL-1Ra, pSTAT3, cytokines; format: in vivo, cynomolgus monkeys
Protocol: (§2) IL-10 delivery construct solution (at concentrations of 0.1, 0.3 and 1.0 mg/mL for the low, mid and high-dose groups respectively) was administered via the rectal route using sigmoidoscopy and a syringe connected to a spray nozzle with a 360° spray pattern. Serial biopsy samples were collected by sigmoidoscopy (pre-dose, 0.25, 0.5, 0.75, 8 and 24-28 hours post dose). Serial plasma samples from 0 min pre-dose to between 24-28 hours post-dose were collected for analysis for the IL-10 delivery construct.
Phosphorylation of STAT3 is an early downstream event following IL-10 receptor activation.
as §1

[7] = Phase 1a single ascending dose in healthy male volunteers; format: in vivo, human; details: 60 and 120 mg
Protocol: In part B of the study, early data was gathered on the safety and tolerability, pharmacokinetics, pharmacodynamics and early clinical response following multiple ascending doses of the IL-10 delivery construct in Ulcerative Colitis (UC) patients (Part B).
Part A consisted of a single-ascending dose (SAD) escalation in healthy male volunteers. Six cohorts consisting of orally administered single ascending doses were conducted. At each dose level, 6 subjects were enrolled, randomized 2:4 to receive a single dose of placebo or the IL-10 delivery construct on day 1. The doses selected were 1 mg, 3 mg, 10 mg, 30 mg, 60 mg, and 120 mg.
Pre-clinical models have identified peripheral IL-1Ra production as a marker of IL-10 engagement to IL-10R in mucosal lymphocytes. To determine if the IL-10 delivery construct was actively transported across the epithelial cell lining into the Lamina propria and able to interact with lymphocytes, the levels of IL-1Ra induction was assessed.

[8] = test system: polarized gut epithelial cells; test: In vivo transcytosis across gut epithelium after intraluminal injection; design: species or system Wistar rats; details: luminal application, rat jejunum
Protocol: In vivo transcytosis was tested using male Wistar rats. Male Wistar rats were housed 3-5 per cage with a 12/12 h light/dark cycle and were about 225-275 g (approximately 6-8 weeks old) when placed on study. Experiments were conducted during the light phase using a non-recovery protocol that uses continuous isoflurane anesthesia. A 4-5 cm midline abdominal incision that exposed mid-jejunum regions was conducted. Stock solutions at 3.86×10^−5M of delivery construct were prepared in phosphate buffered saline (PBS), with 50 μL (per 250 g rat) being administered by intraluminal injection (ILI) using a 29-gauge needle. The injection site mesentery was then marked with a permanent marker. At study termination, a 3-5 mm region that captured the marked intestine segment was isolated and processed for microscopic assessment. The in vivo experiments were performed in accordance with the U.K. Animals (Scientific Procedures) Act of 1986, the European Communities Council Directive of 1986 (86/609/EEC).

[9] = Pan-colonic administration via sigmoidoscopy in NHP: plasma PK/PD; format: in vivo, cynomolgus monkeys
Protocol: as §2

[10] = 0.3 mg/mL, 5 h
[11] = test system: STAT3, IL-1Ra; test: pSTAT3/STAT3 and systemic IL-1Ra in non-inflamed mice (ELISA MSD); format: in vivo
[12] = test system: circulating cytokines, chemokines, growth factors; format: in vivo, mice

B1: IL-10 delivery construct: recombinant homodimeric fusion protein: N-terminal methionine, cholix386 domain, polyGlySer spacer, recombinant human IL-10 (protein)
chain: MVEEALNIFDECRSPCSLTPEPGKPIQSKLSIPSDVVLDEGVLYYSMTINDEQNDIKDEDKGESIITIGEFATVRATRHYVNQDAPFGVIHLDITTENGTKTYSYNRKEGEFAINWLVPIGEDSPASIKISVDELDQQRNIIEVPKLYSIDLDNQTLEQWKTQGNVSFSVTRPEHNIAISWPSVSYKAAQKEGSRHKRWAHWHTGLALCWLVPMDAIYNYITQQNCTLGDNWFGGSYETVAGTPKVITVKQGIEQKPVEQRIHFSKGNAMSALAAHRVCGVPLETLARSRKPRDLTDDLSCAYQAQNIVSLFVATRILFSHLDSVFTLNLDEQEPEVAERLSDLRRINENNPGMVTQVLTVARQIYNDYVTHHPGLTPEQTSAGAQAGGGGSGGGGSGGGGSPGQGTQSENSCTHFPGNLPNMLRDLRDAFSRVKTFFQMKDQLDNLLLKESLLEDFKGYLGCQALSEMIQFYLEEVMPQAENQDPDIKAHVNSLGENLKTLRLRLRRCHRFLPCENKSKAVEQVKNAFNKLQEKGIYKAMSEFDIFINYIEAYMTMKIRN
modifications: homodimer
aggregation during freeze/thaw or at 1 week at 4 °C (20 mg/mL, any condition tested): did not show any significant increases in aggregation
stability with respect to aggregation (initial lyophilization feasibility study): more stable at pH 7.5 with sucrose and glycine
serum levels of the delivery construct ([1]; cynomolgus monkey, in vivo): below the assay detection limit
tissue IL-10 levels ([1]; within 15 min): dose-dependent and transient increases
Dimer Purity (%) ([2]; No Sulfitolysis of SIB (97 mL Capto Q)): 84%
Dimer Purity (%) ([2]; Sulfitolysis of SIB (97 mL Capto Q)): 74%
MMP1, MMP3 and MMP19 expression [3]: upregulated
TIMP1 expression [3]: increased
anti-inflammatory genes (CD163, miR24-2, NOX1, STC1, MTNR1A, VNN2) [3]: upregulated
pro-inflammatory genes (MHCII, PLA2G2D, CCL20, CCL13) [3]: decreased
CYP1A1 expression ([3]; 12-hour fast prior to treatment): downregulated
CD3+ cells co-localizing with pSTAT3 ([4]; 40 min after oral gavage): moderate proportion
F4/80 (macrophage) co-localization with pSTAT3 ([4]; after oral gavage): extensive co-localization with pSTAT3
expression of anti-inflammatory markers [5]: increased expression
expression of pro-inflammatory markers [5]: decreased expression
expression of tissue repair and wound healing biomarkers [5]: increased expression
total IL-10 in colonic tissue ([6]; 1, 3, 10 mg): dose-dependent increase
colonic tissue pSTAT3/STAT3 ([6]; all doses tested): Higher ratios
IL-1Ra induction at high dose [7]: loss of immunomodulatory activity
earliest time of IL-10 payload transport into the Lamina propria [8]: 1 min
plasma construct concentration relative to total IL-10 ([9]; 3 mg and 10 mg): 10 fold lower
time to detection of total IL-10 in plasma ([9]; 1, 3, 10 mg pan-colonic): ≤ 15 min
systemic IL-6 ([9]; 3 and 10 mg): moderately induced
systemic IFN-γ, IL-1β, IL-2, IL-8 ([9]; cynomolgus monkey, in vivo): did not lead to an increase
time of maximal plasma IL-1Ra ([9]; cynomolgus monkey, in vivo): 3 to 4 h
solution stability in PBS at 37 °C [10]: significant degradation
solution stability in PBS at RT [10]: stable
increase in ratio of pSTAT3 to total STAT3 ([11]; construct 1 mg/kg, rhIL-10 0.9 mg/kg (equimolar), non-inflamed colon tissue): approximately 50%
increase of systemic IL-1Ra ([11]; construct 10 mg/kg, rhIL-10 3 mg/kg (equimolar)): about 3 fold
plasma IL-31 ([12]; 0.3 mg/kg): near-base line levels
plasma TGF-β relative to Vehicle ([12]; 3.0 mg/kg): reduced
plasma IL-3 ([12]; 9.0 mg/kg): near-base line levels
plasma IL-4 ([12]; 9.0 mg/kg): near-base line levels
production of IL-12 and IL-17 ([12]; 9.0 mg/kg): prevented the production
plasma IL-28 ([12]; 3.0 and 9.0 mg/kg): near-base line levels
plasma MCSF ([12]; highest dose (9.0 mg/kg)): reduced
oxazolone-induced changes in LIX, LIF, IP10 ([12]; mouse, in vivo): mitigated
oxazolone-induced increase in plasma GCSF/CSF3 ([12]; mouse, in vivo): attenuated
plasma IL-13 and IL-15 vs Vehicle ([12]; mouse, in vivo): trend towards an IL-10 delivery construct-mediated decrease
